Assay results published in article doi:10.1101/709196 (bioRxiv, 2019).

Legend:
SS-EGFP-SUN2^261-731 = SS-EGFP-SUN2^261-731 (UniProt Q8BJS4); experiment: dual-color fluorescence fluctuation spectroscopy
[1] = biological target: the molecule itself; experiment: dual-color fluorescence fluctuation spectroscopy

Row | Molecule | normalized brightness br (mCherry labels per complex) at Nr:Ng above 4:1 (SS-EGFP-SUN2^261-731) | stoichiometry N (SS-EGFP-SUN2^261-731; scale: mCherry-SR-KASH2 per SS-EGFP-SUN2^261-731) | stoichiometry N [1]
1 | mCherry-SR-KASH2 (from UniProt Q6ZWQ0 1-6874) (domain or fragment) | 3 | < 1 | –
2 | SS-EGFP-SUN2^261-731 (domain or fragment, UniProt Q8BJS4 261-731, looked up) SWWAAKESRKQPEVWESRDASQHFQAEQRVLSRVHSLERRLEALAADFSSNWQKEAIRLERLELRQGAAGHGGGSSLSHEDALSLLEGLVSRREATLKEDLRRDTVAHIQEELATLRAEHHQDSEDLFKKIVQASQESEARVQQLKTEWKSMTQEAFQESSVKELGRLEAQLASLRQELAALTLKQNSVADEVGLLPQKIQAARADVESQFPDWIRQFLLGDRGARSGLLQRDEMHAQLQELENKILTKMAEMQGKSAREAAASLGQILQKEGIVGVTEEQVHRIVKQALQRYSEDRIGMVDYALESGGASVISTRCSETYETKTALLSLFGIPLWYHSQSPRVILQPDVHPGNCWAFQGPQGFAVVRLSARIRPTAVTLEHVPKALSPNSTISSAPKDFAIFGFDEDLQQEGTLLGTFAYDQDGEPIQTFYFQASKMATYQVVELRILTNWGHPEYTCIYRFRVHGEPAH | – | – | 3
